# Data: patent publication US20140072613A1, “Compositions and Methods for Treating Cutaneous Scarring” (priority 2012, published 2014)
# What was measured:
# Assay in all cases: biochemical
# Type in all cases: biochemical
# [1] = molecular target: 266 human kinases (Homo sapiens, UniProt P43250); conditions: GRK6(h); 100 μM
# Outline: (§1)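 Read-out by scintillation counting of radiolabelled, positively charged substrate bound to negatively charged filter; activity normalised to 100% control. Phosphate transferred from radiolabelled ATP.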
# [2] = molecular target: T1, 266 human kinases (Homo sapiens, UniProt Q99683); conditions: ASK1(h); 100 μM
# T1 sequence (Q99683 1-1374): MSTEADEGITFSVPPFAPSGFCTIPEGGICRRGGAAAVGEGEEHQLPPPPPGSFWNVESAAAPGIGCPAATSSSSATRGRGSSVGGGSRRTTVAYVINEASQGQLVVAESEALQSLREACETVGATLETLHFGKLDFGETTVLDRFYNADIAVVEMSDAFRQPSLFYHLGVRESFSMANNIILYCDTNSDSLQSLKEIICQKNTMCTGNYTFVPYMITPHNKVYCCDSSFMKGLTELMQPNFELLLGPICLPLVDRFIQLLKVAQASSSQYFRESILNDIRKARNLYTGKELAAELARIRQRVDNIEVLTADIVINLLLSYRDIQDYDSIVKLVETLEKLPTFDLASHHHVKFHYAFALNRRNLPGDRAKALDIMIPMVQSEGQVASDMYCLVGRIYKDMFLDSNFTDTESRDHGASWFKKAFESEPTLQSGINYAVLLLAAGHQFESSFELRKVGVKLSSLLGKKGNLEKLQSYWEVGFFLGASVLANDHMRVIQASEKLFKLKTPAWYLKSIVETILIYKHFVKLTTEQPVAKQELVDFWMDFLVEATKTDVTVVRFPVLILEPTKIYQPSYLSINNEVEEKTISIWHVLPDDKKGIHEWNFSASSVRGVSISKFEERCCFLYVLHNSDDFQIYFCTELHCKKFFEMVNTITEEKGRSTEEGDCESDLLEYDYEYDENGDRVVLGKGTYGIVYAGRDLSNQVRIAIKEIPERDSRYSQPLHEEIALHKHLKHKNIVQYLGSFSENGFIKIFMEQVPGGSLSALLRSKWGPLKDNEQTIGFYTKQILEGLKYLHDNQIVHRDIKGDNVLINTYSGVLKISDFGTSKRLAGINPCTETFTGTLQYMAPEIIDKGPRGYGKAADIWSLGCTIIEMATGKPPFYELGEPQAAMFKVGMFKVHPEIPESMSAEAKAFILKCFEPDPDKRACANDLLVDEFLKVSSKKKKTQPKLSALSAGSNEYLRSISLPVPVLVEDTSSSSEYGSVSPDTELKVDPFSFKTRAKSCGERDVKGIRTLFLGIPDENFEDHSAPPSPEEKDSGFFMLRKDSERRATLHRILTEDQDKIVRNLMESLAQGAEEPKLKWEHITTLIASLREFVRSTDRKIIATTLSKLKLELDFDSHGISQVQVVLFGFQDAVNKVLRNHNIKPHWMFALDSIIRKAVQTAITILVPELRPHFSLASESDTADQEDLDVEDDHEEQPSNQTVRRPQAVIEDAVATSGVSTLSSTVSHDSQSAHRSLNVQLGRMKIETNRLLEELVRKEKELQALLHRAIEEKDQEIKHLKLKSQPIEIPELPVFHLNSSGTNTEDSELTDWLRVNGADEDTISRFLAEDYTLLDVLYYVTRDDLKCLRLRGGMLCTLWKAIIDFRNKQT
# Outline: as §1
# [3] = molecular target: T2, 266 human kinases (Homo sapiens, UniProt Q9UL54); conditions: TAO2(h); 100 μM
# T2 sequence (Q9UL54 1-1235): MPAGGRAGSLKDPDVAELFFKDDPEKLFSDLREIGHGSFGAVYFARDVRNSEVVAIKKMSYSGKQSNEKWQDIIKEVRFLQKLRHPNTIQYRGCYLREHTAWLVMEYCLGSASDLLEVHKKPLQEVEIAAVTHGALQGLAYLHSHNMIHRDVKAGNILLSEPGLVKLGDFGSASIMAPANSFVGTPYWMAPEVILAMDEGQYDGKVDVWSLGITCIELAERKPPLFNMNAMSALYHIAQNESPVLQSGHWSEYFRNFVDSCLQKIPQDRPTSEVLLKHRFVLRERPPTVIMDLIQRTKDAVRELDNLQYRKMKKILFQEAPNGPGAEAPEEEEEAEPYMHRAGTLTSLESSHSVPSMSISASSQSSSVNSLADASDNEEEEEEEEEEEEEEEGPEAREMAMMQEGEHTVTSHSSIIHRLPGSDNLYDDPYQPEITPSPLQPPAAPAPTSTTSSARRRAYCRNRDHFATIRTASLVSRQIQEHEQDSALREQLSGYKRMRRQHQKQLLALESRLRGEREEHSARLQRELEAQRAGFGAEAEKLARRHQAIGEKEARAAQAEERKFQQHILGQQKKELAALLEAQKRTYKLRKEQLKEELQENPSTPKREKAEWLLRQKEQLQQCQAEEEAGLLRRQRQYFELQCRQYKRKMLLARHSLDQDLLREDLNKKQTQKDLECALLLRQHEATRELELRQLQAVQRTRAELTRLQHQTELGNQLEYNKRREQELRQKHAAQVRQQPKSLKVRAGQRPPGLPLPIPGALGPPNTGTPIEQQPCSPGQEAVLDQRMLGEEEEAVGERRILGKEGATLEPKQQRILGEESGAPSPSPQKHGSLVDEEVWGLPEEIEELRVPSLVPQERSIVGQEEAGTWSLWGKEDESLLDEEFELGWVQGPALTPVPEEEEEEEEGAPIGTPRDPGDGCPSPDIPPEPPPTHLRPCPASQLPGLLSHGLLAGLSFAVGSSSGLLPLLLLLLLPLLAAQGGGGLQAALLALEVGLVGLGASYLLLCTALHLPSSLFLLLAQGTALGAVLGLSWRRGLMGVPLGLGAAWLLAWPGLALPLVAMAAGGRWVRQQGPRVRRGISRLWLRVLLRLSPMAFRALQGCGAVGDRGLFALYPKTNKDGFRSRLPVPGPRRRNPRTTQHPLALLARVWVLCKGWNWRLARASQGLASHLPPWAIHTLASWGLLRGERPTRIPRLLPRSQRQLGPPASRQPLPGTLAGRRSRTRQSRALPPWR
# Outline: as §1
# Sequence of 266 human kinases (Homo sapiens, UniProt P43250) (P43250 whole entry): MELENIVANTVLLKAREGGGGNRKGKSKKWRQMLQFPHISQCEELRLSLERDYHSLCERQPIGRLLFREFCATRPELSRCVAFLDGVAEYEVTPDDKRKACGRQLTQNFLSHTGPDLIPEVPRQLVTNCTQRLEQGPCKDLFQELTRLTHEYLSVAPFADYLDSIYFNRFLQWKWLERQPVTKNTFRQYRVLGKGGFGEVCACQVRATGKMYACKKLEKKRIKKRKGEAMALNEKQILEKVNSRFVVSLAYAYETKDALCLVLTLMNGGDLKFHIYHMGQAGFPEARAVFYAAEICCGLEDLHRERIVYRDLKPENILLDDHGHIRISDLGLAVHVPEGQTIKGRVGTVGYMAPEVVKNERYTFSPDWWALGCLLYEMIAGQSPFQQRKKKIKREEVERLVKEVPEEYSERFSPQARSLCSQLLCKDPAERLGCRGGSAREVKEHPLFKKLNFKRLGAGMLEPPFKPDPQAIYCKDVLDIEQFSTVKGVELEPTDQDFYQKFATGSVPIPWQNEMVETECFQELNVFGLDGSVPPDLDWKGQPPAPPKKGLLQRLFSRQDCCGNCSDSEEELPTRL
Sequence,% activity [1] [%],% activity [2] [%],% activity [3] [%]
HRRIKAWLKKIKALARQLGVAA (mammal) [MMI-0500],174,−4,15
YARAAARQARAKALNRQLGVA (mammal) [MMI-0200],132,101,93
